The record followed here is patent US20200062842A1.

Assay [1] addresses human MUC1 on the surface of MUC1 expressing tumor cells (human) (UniProt P15941). The assay is described as follows: flow cytometry, FITC-conjugated antibody, MDA-231 cells; cell looks truncated.
For assay [2] the target is unchanged. The assay is described as follows: FACS, bone marrow aspirate of MM patient P #3. For orientation: Flow cytometry measures light scatter and fluorescence of single cells or particles in a stream.
The target is the same in assay [3]. The assay is described as follows: FACS, bone marrow aspirate of MM patient P #I.
Assay [4] shares this target. The assay is described as follows: FACS, bone marrow aspirate of MM patient P #II.
Assay [5] shares this target. The assay is described as follows: flow cytometry, FITC-conjugated antibody, Raji cells; cell looks truncated.
For assay [6] the target is unchanged. The experiment in a line: flow cytometry, FITC-conjugated antibody, ARH-77 cells; cell looks truncated.
Assay [7] has the same target. The assay is described as follows: flow cytometry, FITC-conjugated antibody, MDA-453 cells; cell looks truncated.
Assay [8] shares this target. The assay is described as follows: flow cytometry, FITC-conjugated antibody, U266 cells; cell looks truncated.
The target is the same in assay [9]. The experiment in a line: flow cytometry, FITC-conjugated antibody, MCF7 cells; cell looks truncated.
The target is the same in assay [10]. The assay is described as follows: flow cytometry, FITC-conjugated antibody, RPMI8226 cells; cell looks truncated.
For assay [11] the target is unchanged. The experiment in a line: flow cytometry, FITC-conjugated antibody, OVCAR-3 cells; cell looks truncated.
For assay [12] the target is unchanged. The assay is described as follows: flow cytometry, FITC-conjugated antibody, MDA-231 cells; negative control.
Assay [13] shares this target. The assay is described as follows: flow cytometry, FITC-conjugated antibody, ARH-77 cells; negative control.
Assay [14] has the same target. The assay is described as follows: flow cytometry, FITC-conjugated antibody, Ramos cells; negative control.
For assay [15] the target is unchanged. The assay is described as follows: flow cytometry, FITC-conjugated antibody, Raji cells; negative control.
The target is the same in assay [16]. The assay is described as follows: flow cytometry, FITC-conjugated antibody, U266 cells; negative control.
The target is the same in assay [17]. The assay is described as follows: flow cytometry, FITC-conjugated antibody, MDA-453 cells; negative control.
Assay [18] has the same target. The experiment in a line: flow cytometry, FITC-conjugated antibody, OVCAR-3 cells; negative control.
Assay [19] shares this target. The experiment in a line: flow cytometry, FITC-conjugated antibody, MCF7 cells; negative control.
Assay [20] shares this target. The experiment in a line: flow cytometry, FITC-conjugated antibody, RPMI8226 cells; negative control.

Sequence of UniProt P15941 (P15941 24-1255): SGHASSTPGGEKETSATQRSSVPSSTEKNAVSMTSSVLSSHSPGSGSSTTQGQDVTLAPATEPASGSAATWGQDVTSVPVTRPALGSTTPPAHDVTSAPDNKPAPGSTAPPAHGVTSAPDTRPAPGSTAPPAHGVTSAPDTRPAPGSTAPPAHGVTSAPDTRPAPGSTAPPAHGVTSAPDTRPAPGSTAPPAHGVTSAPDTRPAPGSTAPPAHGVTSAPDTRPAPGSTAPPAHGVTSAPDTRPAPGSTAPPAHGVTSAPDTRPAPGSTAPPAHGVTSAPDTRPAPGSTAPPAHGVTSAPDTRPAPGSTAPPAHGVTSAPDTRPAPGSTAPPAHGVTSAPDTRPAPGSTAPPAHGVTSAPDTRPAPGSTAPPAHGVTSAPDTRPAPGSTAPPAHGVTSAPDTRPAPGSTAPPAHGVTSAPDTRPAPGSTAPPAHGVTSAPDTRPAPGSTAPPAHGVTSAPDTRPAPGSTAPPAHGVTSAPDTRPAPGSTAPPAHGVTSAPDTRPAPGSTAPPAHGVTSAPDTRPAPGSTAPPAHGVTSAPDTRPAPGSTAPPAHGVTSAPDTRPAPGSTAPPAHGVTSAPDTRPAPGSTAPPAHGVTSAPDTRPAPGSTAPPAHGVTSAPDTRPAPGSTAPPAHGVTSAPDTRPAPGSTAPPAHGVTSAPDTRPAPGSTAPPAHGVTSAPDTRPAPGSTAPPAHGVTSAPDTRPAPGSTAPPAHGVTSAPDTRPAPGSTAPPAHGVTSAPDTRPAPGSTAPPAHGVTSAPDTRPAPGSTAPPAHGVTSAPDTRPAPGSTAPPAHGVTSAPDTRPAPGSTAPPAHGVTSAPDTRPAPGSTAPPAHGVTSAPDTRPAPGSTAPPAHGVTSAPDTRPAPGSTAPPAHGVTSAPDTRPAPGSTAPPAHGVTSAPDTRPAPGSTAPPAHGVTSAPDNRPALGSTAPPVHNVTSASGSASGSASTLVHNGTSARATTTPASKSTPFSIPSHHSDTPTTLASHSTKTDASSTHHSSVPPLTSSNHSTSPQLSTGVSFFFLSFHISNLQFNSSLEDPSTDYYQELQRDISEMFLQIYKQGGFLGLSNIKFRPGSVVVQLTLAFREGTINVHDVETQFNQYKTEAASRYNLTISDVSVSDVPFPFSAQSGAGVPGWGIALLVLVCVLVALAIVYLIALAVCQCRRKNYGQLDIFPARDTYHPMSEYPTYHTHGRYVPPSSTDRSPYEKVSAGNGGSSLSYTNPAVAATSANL

As for H23 anti-MUC1 TRA monoclonal antibody, the geometric mean (FACS) in [1] is 66; in assay [5], 3; in assay [6], 68; in assay [7] it was 80; in assay [8], 39; in assay [9] it was 4. For the same substance, the geometric mean (FACS) was 585 in assay [10] and 456 in [11]. For the same substance, the % of cells immunoreactive in [2] came to 0.37%. Also, the values for the % of CD138 positive cells immunoreactive in [3] and in [4] were 78.3% and 59.2%, respectively.
“Mouse control (species-specific isotype control, FITC conjugated) (antibody)”: the geometric mean (FACS) in assay [12] came to 245; in assay [13], 176; in [14], 198; in assay [15] it was 131; in assay [16], 485; in assay [17], 182. Also, the geometric mean (FACS) in assay [18] turned out to be 370; in [19], 230; in assay [20], 745.
For “Rabbit control (species-specific isotype control, FITC conjugated) (antibody)”, the geometric mean (FACS) in assay [12] turned out to be 215; in assay [13], 161; in assay [14], 111; in assay [15], 128; in [16], 471; in assay [17], 165. Moreover, the results for the geometric mean (FACS) in assay [18], in assay [19] and in assay [20] were 418, 236 and 738, respectively.
